According to article PMC6529012:

Assays:
[1] = target: human foreskin fibroblast fibronectin (human)
[2] = target: human foreskin fibroblast fibronectin (human); remark: listed apart in the source

Chain of human foreskin fibroblast fibronectin (human) (P02751 32-2477): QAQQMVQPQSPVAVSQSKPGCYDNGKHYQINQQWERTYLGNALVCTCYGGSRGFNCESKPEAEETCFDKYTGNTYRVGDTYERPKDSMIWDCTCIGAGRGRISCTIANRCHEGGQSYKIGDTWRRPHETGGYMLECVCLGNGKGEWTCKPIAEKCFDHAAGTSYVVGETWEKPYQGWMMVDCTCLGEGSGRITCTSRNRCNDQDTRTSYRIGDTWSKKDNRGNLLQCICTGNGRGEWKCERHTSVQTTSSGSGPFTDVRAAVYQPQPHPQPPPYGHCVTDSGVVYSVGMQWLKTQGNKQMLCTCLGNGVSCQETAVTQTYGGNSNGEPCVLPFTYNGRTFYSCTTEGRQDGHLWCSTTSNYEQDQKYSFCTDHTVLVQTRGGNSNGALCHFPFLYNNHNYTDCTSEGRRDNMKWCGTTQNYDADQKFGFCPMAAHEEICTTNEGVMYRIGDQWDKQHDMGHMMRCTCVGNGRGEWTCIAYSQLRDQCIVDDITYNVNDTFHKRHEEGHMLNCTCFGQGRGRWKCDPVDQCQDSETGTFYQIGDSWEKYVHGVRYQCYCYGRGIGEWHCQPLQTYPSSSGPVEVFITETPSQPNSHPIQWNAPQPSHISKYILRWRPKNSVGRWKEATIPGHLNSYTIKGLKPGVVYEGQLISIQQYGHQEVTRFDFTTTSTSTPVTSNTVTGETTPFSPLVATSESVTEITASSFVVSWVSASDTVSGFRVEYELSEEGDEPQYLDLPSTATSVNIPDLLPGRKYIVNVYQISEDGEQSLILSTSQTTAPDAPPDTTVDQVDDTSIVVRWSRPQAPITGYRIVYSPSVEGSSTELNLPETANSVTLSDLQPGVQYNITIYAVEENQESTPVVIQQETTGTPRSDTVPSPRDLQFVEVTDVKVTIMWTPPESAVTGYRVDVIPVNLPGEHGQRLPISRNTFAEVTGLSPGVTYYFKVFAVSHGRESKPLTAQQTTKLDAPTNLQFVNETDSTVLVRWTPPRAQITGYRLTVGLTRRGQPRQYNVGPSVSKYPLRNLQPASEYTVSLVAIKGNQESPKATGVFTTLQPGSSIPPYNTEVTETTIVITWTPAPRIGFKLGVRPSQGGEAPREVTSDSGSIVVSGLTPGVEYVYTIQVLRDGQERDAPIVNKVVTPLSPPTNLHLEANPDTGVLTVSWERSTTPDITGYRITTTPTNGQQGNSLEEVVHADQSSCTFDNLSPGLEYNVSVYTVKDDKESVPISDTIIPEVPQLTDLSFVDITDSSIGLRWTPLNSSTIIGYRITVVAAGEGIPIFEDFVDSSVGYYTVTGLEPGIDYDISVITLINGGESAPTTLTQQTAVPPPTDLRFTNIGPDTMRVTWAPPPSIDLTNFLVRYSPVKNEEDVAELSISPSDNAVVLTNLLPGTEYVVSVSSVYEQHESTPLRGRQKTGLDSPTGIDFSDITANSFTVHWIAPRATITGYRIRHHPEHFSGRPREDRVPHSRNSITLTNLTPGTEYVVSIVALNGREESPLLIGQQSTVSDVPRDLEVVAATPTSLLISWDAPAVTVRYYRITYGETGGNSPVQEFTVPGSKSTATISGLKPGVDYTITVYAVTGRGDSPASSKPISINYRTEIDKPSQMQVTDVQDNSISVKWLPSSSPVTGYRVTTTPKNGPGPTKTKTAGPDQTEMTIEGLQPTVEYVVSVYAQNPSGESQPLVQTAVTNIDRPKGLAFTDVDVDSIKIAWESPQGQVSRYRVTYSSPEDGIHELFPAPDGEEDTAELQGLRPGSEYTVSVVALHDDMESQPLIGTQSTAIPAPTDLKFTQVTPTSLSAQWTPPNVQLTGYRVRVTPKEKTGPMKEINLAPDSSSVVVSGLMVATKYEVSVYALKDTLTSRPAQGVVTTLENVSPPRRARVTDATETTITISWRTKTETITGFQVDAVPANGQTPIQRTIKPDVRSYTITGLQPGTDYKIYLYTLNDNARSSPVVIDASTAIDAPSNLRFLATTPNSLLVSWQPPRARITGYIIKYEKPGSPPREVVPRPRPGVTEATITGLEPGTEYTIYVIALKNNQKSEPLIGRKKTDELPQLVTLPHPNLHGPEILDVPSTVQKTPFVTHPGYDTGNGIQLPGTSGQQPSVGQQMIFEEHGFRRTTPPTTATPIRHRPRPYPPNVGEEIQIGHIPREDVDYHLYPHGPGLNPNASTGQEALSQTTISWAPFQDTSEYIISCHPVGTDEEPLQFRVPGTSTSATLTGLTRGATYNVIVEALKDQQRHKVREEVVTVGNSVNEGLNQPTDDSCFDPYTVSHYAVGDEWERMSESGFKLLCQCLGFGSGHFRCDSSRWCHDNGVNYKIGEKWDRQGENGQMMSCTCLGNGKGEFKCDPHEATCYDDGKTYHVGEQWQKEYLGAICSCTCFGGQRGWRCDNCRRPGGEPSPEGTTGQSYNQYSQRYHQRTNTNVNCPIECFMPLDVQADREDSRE

Binder | average percent binding of radiolabelled B314 expressing Tp0136 to Vero cells [1] | reduction by FnbA-2 peptide (10 ug/well, preincubated with the monolayer) of adherence of radiolabelled B314 expressing Tp0136 to C6 (rat) glioma cells [2] | reduction by FnbA-2 peptide (10 ug/well, preincubated with the monolayer) of adherence of radiolabelled B314 expressing Tp0136 to HEK293 cells [2]
Tp0136 of Treponema pallidum subsp. pallidum SS14 strain, expressed on the surface of B. burgdorferi B314 (natural protein) CDFTGIFAAIQSEVPIKTPSIPGAIYGLVKAGSKLYATNGRLWEKELNGTGSWQKVSSSSVPTDSDKKVMSIATDGNTFVLACVPGTGVYKHCVNGAGSSSTGTTASPSTETCSQHATLVGGTSKPFWLVPGGTGNNGNCGCGGGGGGSSSSSSSCIHIWLVPGGTGNNGNCGCGGGGGGSSSSSSSCIHIKVENTDEQFLDMGEGYVVTTKHLYTKNGSSSAGPAQCPGGGGGGGSSGGGGSSEYTKASCSFSTPILASVSDGCYHYILTKEKVYCRKQDTASSAASSPAQCPSSPSSSSSSSTNAGCEVAHGVDDPLCLAIFKHNGCEYLLIGGSRGYGEIKLEANSSGTNGTCMRLKESNVHKSPGQWGESSPTPKASAEQYRGTVGRFAVQKIYVVEKNGGGNGVAAGGAGCPANASSSSGGTSSTQRPDLYAAVGESSDTYTGLWKFDTTTCSWNRE | 6% | 25.3% | 18.8%
Tp0136 of Treponema pallidum subsp. pallidum Nichols (Seattle-Nichols) strain, expressed on the surface of B. burgdorferi B314 (natural protein) CDFTGIFAAIQSEVPIKTPSIPGAIYGLVKAGSKLYATNGRLWEKELNGTGSWQKVSSSSVPTDSDKKVMSIATDGNTFVLACVPGTGVYKHCVNGAGSSSTGTTASPSTETCSQHATLVGGTSKPFWLVPGGTGNNGNCGCGGGGGGSSSSSSSCIHIWLVPGGTGNNGNCGCGGGGGGSSSSSSSCIHIKVENTDEQFLDMGEGYVVTTKHLYTKNGSSSAGPAQCPGGGGGGGSSGGGGSSEYTKASCSFSTPILASVSDGCYHYILTKEKVYCRKQDTASSAASSPAQCPSSPSSSSSSSTNAGCEVAHGVDDPLCLAIFKHNGCEYLLIGGSRGYGEIKLEANSSGTNGTCMRLKESNVHKSPGQWGESSPTPKASAEQYRGTVGRFAVQKIYVVEKNGGGNGVAAGGAGCPANASSSSGGTSSTQRPDLYAAVGESSDTYTGLWKFDTTTCSWNRE | 8% | 27.7% | 26.3%
